For this data set, the target named is T1, MqsA N97A/R101A N97A;R101A (Escherichia coli K-12?) (UniProt Q46864).
T1 sequence: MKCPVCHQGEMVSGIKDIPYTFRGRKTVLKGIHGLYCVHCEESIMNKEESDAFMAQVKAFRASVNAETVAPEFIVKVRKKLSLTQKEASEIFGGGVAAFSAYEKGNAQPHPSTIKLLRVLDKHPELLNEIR
In words: EMSA. The following applies: 20 min at room temperature, binding buffer.

In the case of “TGAACGTTGGTCAGACCTTGCAGGTGGGTAATGCTTCCGGTACGCCAATCACTGGCGGAAATGCCATTACCCAGGCCGACGCAGCAGAGCAAGGAGTTGTGATCAAGCCTGCACAAAATTCCACCGTTGCTGTTGCGTCGCAACCGACAATTACGTATTCTGAGTCTTCGGGTGAACAGAGTGCT (double strand) [PrpoS (Suppl. Fig. 3b probe)]”, the binding entry is given as “no binding”.

The record behind these values is publication PMC3097263.
